Test results as given in the supplement of paper PMC11246515.
± gives the standard deviation of the averaged measurements.

Test: total protein half-life in vivo (active degradation + dilution); higher = more stable protein
[1] = E. coli NCM3722 delta-clpP delta-lon delta-hslV, growth: N-lim chemostat, doubling time 6 h
[2] = E. coli NCM3722 delta-clpP, growth: N-lim chemostat, doubling time 6 h
[3] = E. coli NCM3722 delta-hslV, growth: N-lim chemostat, doubling time 6 h
[4] = E. coli NCM3722 delta-smpB, growth: N-lim chemostat, doubling time 6 h
[5] = wild type E. coli NCM3722, growth: C-lim chemostat, doubling time 3 h
[6] = wild type E. coli NCM3722, growth: C-lim chemostat, doubling time 6 h
[7] = wild type E. coli NCM3722, growth: C-lim chemostat, doubling time 12 h
[8] = wild type E. coli NCM3722, growth: N-lim chemostat, doubling time 6 h
[9] = wild type E. coli NCM3722, growth: N-lim chemostat, doubling time 12 h
[10] = wild type E. coli NCM3722, growth: P-lim chemostat, doubling time 6 h
[11] = wild type E. coli NCM3722, growth: P-lim chemostat, doubling time 12 h
[12] = E. coli NCM3722 delta-lon, growth: N-lim chemostat, doubling time 6 h

Sequence	total protein half-life in vivo [1]	total protein half-life in vivo [2]	total protein half-life in vivo [3]	total protein half-life in vivo [4]	total protein half-life in vivo [5]	total protein half-life in vivo [6]	total protein half-life in vivo [7]	total protein half-life in vivo [8]	total protein half-life in vivo [9]	total protein half-life in vivo [10]	total protein half-life in vivo [11]	total protein half-life in vivo [12]
MKKGTVLNSDISSVISRLGHTDTLVVCDAGLPIPKSTTRIDMALTQGVPSFMQVLGVVTNEMQVEAAIIAEEIKHHNPQLHETLLTHLEQLQKHQGNTIEIRYTTHEQFKQQTAESQAVIRSGECSPYANIILCAGVTF	5.99 ± 0.1 h	5.79 ± 2.1 h	4.85 h	4.78 ± 0.7 h	3.49 ± 0.2 h	6.69 ± 1.8 h	10.6 ± 0.4 h	4.95 ± 0.51 h	6.08 h	6.43 ± 0.15 h	13.3 ± 2.3 h	
MKKIALIIGSMIAGGIISAAGFTWVAKAEPPAEKTSTAERKILFWYDPMYPNTRFDKPGKSPFMDMDLVPKYADEESSASGVRIDPTQTQNLGVKTATVTRGPLTFAQSFPANVSYNEYQYAIVQARAAGFIDKVYPLTVGDKVQKGTPLLDLTIPDWVEAQSEYLLLRETGGTATQTEGILERLRLAGMPEADIRRLIATQKIQTRFTLKAPIDGVITAFDLRAGMNIAKDNVVAKIQGMDPVWVTAAIPESIAWLVKDASQFTLTVPARPDKTLTIRKWTLLPGVDAATRTLQLRLEVDNADEALKPGMNAWLQLNTASEPMLLIPSQALIDTGSEQRVITVDADGRFVPKRVAVFQASQGVTALRSGLAEGEKVVSSGLFLIDSEANISGALERMRSESATHAH	2.95 h	4.8 h	5.69 ± 0.66 h	4.32 ± 1.3 h	> 4 h	5.79 h	> 16 h	5.73 ± 0.53 h	10.2 ± 0.68 h	5.52 ± 0.11 h	10.7 ± 0.35 h	4.62 h
MKKIDAIIKPFKLDDVREALAEVGITGMTVTEVKGFGRQKGHTELYRGAEYMVDFLPKVKIEIVVPDDIVDTCVDTIIRTAQTGKIGDGKIFVFDVARVIRIRTGEEDDAAI [P0A9Z1]	5.76 ± 0.58 h	5.59 ± 1.1 h	5.06 ± 0.23 h	4.77 ± 0.36 h	3.3 ± 0.45 h	5.57 ± 0.17 h	10.5 ± 1.1 h	4.68 ± 0.49 h	8.91 ± 0.19 h	5.77 ± 0.31 h	11.6 ± 0.54 h	5.35 ± 0.13 h
MKKIIALMLFLTFFAHANDSEPGSQYLKAAEAGDRRAQYFLADSWFSSGDLSKAEYWAQKAADSGDADACALLAQIKITNPVSLDYPQAKVLAEKAAQAGSKEGEVTLAHILVNTQAGKPDYPKAISLLENASEDLENDSAVDAQMLLGLIYANGVGIKADDDKATWYFKRSSAISRTGYSEYWAGMMFLNGEEGFIEKNKQKALHWLNLSCMEGFDTGCEEFEKLTNG [P0AF56]	2.83 ± 0.045 h	2.24 ± 1.1 h		0.675 h	1.04 ± 0.074 h	1.62 ± 0.75 h	2.73 ± 2.1 h	1.12 h	0.655 h	1.33 ± 0.63 h	1.48 ± 0.49 h	1.32 h
MKKISLPKIGIRPVIDGRRMGVRESLEEQTMNMAKATAALLTEKLRHACGAAVECVISDTCIAGMAEAAACEEKFSSQNVGLTITVTPCWCYGSETIDMDPTRPKAIWGFNGTERPGAVYLAAALAAHSQKGIPAFSIYGHDVQDADDTSIPADVEEKLLRFARAGLAVASMKGKSYLSLGGVSMGIAGSIVDHNFFESWLGMKVQAVDMTELRRRIDQKIYDEAELEMALAWADKNFRYGEDENNKQYQRNAEQSRAVLRESLLMAMCIRDMMQGNSKLADIGRVEESLGYNAIAAGFQGQRHWTDQYPNGDTAEAILNSSFDWNGVREPFVVATENDSLNGVAMLMGHQLTGTAQVFADVRTYWSPEAIERVTGHKLDGLAEHGIIHLINSGSAALDGSCKQRDSEGNPTMKPHWEISQQEADACLAATEWCPAIHEYFRGGGYSSRFLTEGGVPFTMTRVNIIKGLGPVLQIAEGWSVELPKDVHDILNKRTNSTWPTTWFAPRLTGKGPFTDVYSVMANWGANHGVLTIGHVGADFITLASMLRIPVCMHNVEETKVYRPSAWAAHGMDIEGQDYRACQNYGPLYKR	4.26 ± 0.39 h	4.38 h		3.21 h	3.42 ± 0.12 h	5.12 ± 0.1 h	9.64 ± 0.84 h	2.78 ± 0.2 h		5.22 ± 0.62 h	10.9 ± 1.1 h	3.06 h
MKKKIESYQGAAGGWGAVKSVANAVRKQMDIRQDVIAMFDMNKPEGFDCPGCAWPDPKHSASFDICENGAKAIAWEVTDKQVNASFFAENTVQSLLTWGDHELEAAGRLTQPLKYDAVSDCYKPLSWQQAFDEIGARLQSYSDPNQVEFYTSGRTSNEAAFLYQLFAREYGSNNFPDCSNMCHEPTSVGLAASIGVGKGTVLLEDFEKCDLVICIGHNPGTNHPRMLTSLRALVKRGAKMIAINPLQERGLERFTAPQNPFEMLTNSETQLASAYYNVRIGGDMALLKGMMRLLIERDDAASAAGRPSLLDDEFIQTHTVGFDELRRDVLNSEWKDIERISGLSQTQIAELADAYAAAERTIICYGMGITQHEHGTQNVQQLVNLLLMKGNIGKPGAGICPLRGHSNVQGDRTVGITEKPSAEFLARLGERYGFTPPHAPGHAAIASMQAICTGQARALICMGGNFALAMPDREASAVPLTQLDLAVHVATKLNRSHLLTARHSYILPVLGRSEIDMQKNGAQAVTVEDSMSMIHASRGVLKPAGVMLKSECAVVAGIAQAALPQSVVAWEYLVEDYDRIRNDIEAVLPEFADYNQRIRHPGGFHLINAAAERRWMTPSGKANFITSKGLLEDPSSAFNSKLVMATVRSHDQYNTTIYGMDDRYRGVFGQRDVVFMSAKQAKICRVKNGERVNLIALTPDGKRSSRRMDRLKVVIYPMADRSLVTYFPESNHMLTLDNHDPLSGIPGYKSIPVELEPSN	5.48 ± 0.53 h	3.76 ± 1.3 h	4.01 ± 0.19 h	3.52 ± 0.085 h	2.35 ± 0.34 h	2.95 ± 0.35 h	3.6 ± 0.45 h	3.5 ± 0.52 h	4.87 ± 1.3 h	3.7 ± 0.2 h	4.31 ± 0.17 h	4.01 ± 0.03 h
MKKLINDVQDVLDEQLAGLAKAHPSLTLHQDPVYVTRADAPVAGKVALLSGGGSGHEPMHCGYIGQGMLSGACPGEIFTSPTPDKIFECAMQVDGGEGVLLIIKNYTGDILNFETATELLHDSGVKVTTVVIDDDVAVKDSLYTAGRRGVANTVLIEKLVGAAAERGDSLDACAELGRKLNNQGHSIGIALGACTVPAAGKPSFTLADNEMEFGVGIHGEPGIDRRPFSSLDQTVDEMFDTLLVNGSYHRTLRFWDYQQGSWQEEQQTKQPLQSGDRVIALVNNLGATPLSELYGVYNRLTTRCQQAGLTIERNLIGAYCTSLDMTGFSITLLKVDDETLALWDAPVHTPALNWGK	5.88 ± 0.29 h	5.22 ± 0.51 h	5.21 ± 0.23 h	5.33 ± 0.57 h	2.78 ± 0.28 h	5.7 ± 0.2 h	10.4 ± 0.73 h	5.72 ± 0.15 h	10.3 ± 1.2 h	5.75 ± 0.93 h	12.5 ± 0.43 h	
MKKLKINYLFIGILALLLAVALWPSIPWFGKADNRIAAIQARGELRVSTIHTPLTYNEINGKPFGLDYELAKQFADYLGVKLKVTVRQNISQLFDDLDNGNADLLAAGLVYNSERVKNYQPGPTYYSVSQQLVYKVGQYRPRTLGNLTAEQLTVAPGHVVVNDLQTLKETKFPELSWKVDDKKGSAELMEDVIEGKLDYTIADSVAISLFQRVHPELAVALDITDEQPVTWFSPLDGDNTLSAALLDFFNEMNEDGTLARIEEKYLGHGDDFDYVDTRTFLRAVDAVLPQLKPLFEKYAEEIDWRLLAAIAYQESHWDAQATSPTGVRGMMMLTKNTAQSLGITDRTDAEQSISGGVRYLQDMMSKVPESVPENERIWFALAAYNMGYAHMLDARALTAKTKGNPDSWADVKQRLPLLSQKPYYSKLTYGYARGHEAYAYVENIRKYQISLVGYLQEKEKQATEAAMQLAQDYPAVSPTELGKEKFPFLSFLSQSSSNYLTHSPSLLFSRKGSEEKQN [P0AGC5]	4.75 h							1.64 h			3.13 h	
